B1: DULLARD (parent)
chain: LVVFTASMEIYGSAVADKLDNSRS
B2: MIA2 (parent)
chain: DMVSNIELPTRIHEEVYFEPSSSK

Variants of: B1
Test: protein stability index of a GFP-peptide fusion (GPS, HEK-293T) (PSI 1-6); higher = more stable
Conditions: c terminus: a fixed tail appended
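Further: lentivirally expressed fusions sorted by FACS into six bins by GFP to DsRed ratio, PSI derived from sequencing read proportions per bin multiplied by bin number.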

Which protein stability index does the source give for LVVFTASMEIYGSDVADKLDNSRS here?
The protein stability index was 1.19.

Which protein stability index does the source give for LVVFTASMEIYGSSVADKLDNSRS here?
The protein stability index was 2.32.

Which protein stability index does the source give for LVVFTASMEIYGSEVADKLDNSRS here?
The protein stability index was 1.04.

With LVVFTASMEIYGSCVADKLDNSRS as the variant, how does the protein stability index read?
The protein stability index was 2.02.

With LVVFTATMEIYGSAVADKLDNSRS as the variant, how does the protein stability index read?
Its protein stability index is 2.48.

Which protein stability index does the source give for LVVFTASMEIYGSAVADKPDNSRS here?
Its protein stability index is 2.23.

With LVVFTASMEIYGSAVADKDDNSRS as the variant, how does the protein stability index read?
Its protein stability index is 1.73.

With LVVFTASMEIYGSAVADKNDNSRS as the variant, how does the protein stability index read?
Its protein stability index is 1.23.

Which protein stability index does the source give for LVVFTASMEIYGSAVADKQDNSRS here?
Its protein stability index is 2.45.

With LVVFTASMEIYGSAVADKWDNSRS as the variant, how does the protein stability index read?
The protein stability index was 2.27.

For LVVFTASMEIYGSAVADKSDNSRS, which protein stability index is on record?
The protein stability index was 2.02.

For LVVFTASMEIYGSAVADKKDNSRS, which protein stability index is on record?
The protein stability index was 1.66.

For LVVFTASMEIYGSAKADKLDNSRS, which protein stability index is on record?
The protein stability index was 2.26.

For LVVFTASMEIYGSATADKLDNSRS, which protein stability index is on record?
The protein stability index was 1.66.

Which protein stability index does the source give for LVVFTASMEIYGSACADKLDNSRS here?
Its protein stability index is 1.95.

With LVVFTASMEIYGSAVADKLDNSRR as the variant, how does the protein stability index read?
Its protein stability index is 1.88.

With LVVFTASMEIYGSAVADKLDNSRL as the variant, how does the protein stability index read?
The protein stability index was 2.2.

Which protein stability index does the source give for RVVFTASMEIYGSAVADKLDNSRS here?
The protein stability index was 2.49.

With MVVFTASMEIYGSAVADKLDNSRS as the variant, how does the protein stability index read?
Its protein stability index is 2.29.

Which protein stability index does the source give for VVVFTASMEIYGSAVADKLDNSRS here?
Its protein stability index is 3.46.

Which protein stability index does the source give for TVVFTASMEIYGSAVADKLDNSRS here?
The protein stability index was 1.82.

With QVVFTASMEIYGSAVADKLDNSRS as the variant, how does the protein stability index read?
The protein stability index was 2.52.

For LVVFTASMNIYGSAVADKLDNSRS, which protein stability index is on record?
Its protein stability index is 1.74.

With LVVFTASMETYGSAVADKLDNSRS as the variant, how does the protein stability index read?
Its protein stability index is 1.87.

With LVVFTASMESYGSAVADKLDNSRS as the variant, how does the protein stability index read?
The protein stability index was 1.05.

For LVVFTASMEIYGSAVADKLDASRS, which protein stability index is on record?
The protein stability index was 2.08.

For LVVFTASMEIYGSAVADKLDGSRS, which protein stability index is on record?
The protein stability index was 1.8.

Which protein stability index does the source give for LVVFTASMEIYGSAVADKLDDSRS here?
Its protein stability index is 2.47.

For LVVFTASMEIYGSAVADKLDVSRS, which protein stability index is on record?
The protein stability index was 1.5.

With LVVFNASMEIYGSAVADKLDNSRS as the variant, how does the protein stability index read?
Its protein stability index is 1.76.

With LVVFQASMEIYGSAVADKLDNSRS as the variant, how does the protein stability index read?
Its protein stability index is 2.37.

Which protein stability index does the source give for LVVFDASMEIYGSAVADKLDNSRS here?
Its protein stability index is 2.09.

For LVVFHASMEIYGSAVADKLDNSRS, which protein stability index is on record?
The protein stability index was 1.99.

With LVVFVASMEIYGSAVADKLDNSRS as the variant, how does the protein stability index read?
Its protein stability index is 3.31.

Which protein stability index does the source give for LVVFSASMEIYGSAVADKLDNSRS here?
Its protein stability index is 3.15.

For LVVFRASMEIYGSAVADKLDNSRS, which protein stability index is on record?
The protein stability index was 2.6.

Which protein stability index does the source give for LVVFTASCEIYGSAVADKLDNSRS here?
The protein stability index was 1.14.

With LVVFTASYEIYGSAVADKLDNSRS as the variant, how does the protein stability index read?
Its protein stability index is 2.64.

With LVVFTASSEIYGSAVADKLDNSRS as the variant, how does the protein stability index read?
The protein stability index was 1.02.

With LVVFTASFEIYGSAVADKLDNSRS as the variant, how does the protein stability index read?
The protein stability index was 3.03.

For LVVFTASAEIYGSAVADKLDNSRS, which protein stability index is on record?
Its protein stability index is 1.59.

With LVVFTASKEIYGSAVADKLDNSRS as the variant, how does the protein stability index read?
The protein stability index was 1.96.

With LVFFTASMEIYGSAVADKLDNSRS as the variant, how does the protein stability index read?
The protein stability index was 2.15.

With LVHFTASMEIYGSAVADKLDNSRS as the variant, how does the protein stability index read?
The protein stability index was 2.21.

For LVKFTASMEIYGSAVADKLDNSRS, which protein stability index is on record?
The protein stability index was 2.

For LVMFTASMEIYGSAVADKLDNSRS, which protein stability index is on record?
The protein stability index was 3.28.

For LVTFTASMEIYGSAVADKLDNSRS, which protein stability index is on record?
Its protein stability index is 1.99.

Which protein stability index does the source give for LVRFTASMEIYGSAVADKLDNSRS here?
The protein stability index was 2.23.

With LVPFTASMEIYGSAVADKLDNSRS as the variant, how does the protein stability index read?
The protein stability index was 3.51.

With LVNFTASMEIYGSAVADKLDNSRS as the variant, how does the protein stability index read?
The protein stability index was 2.75.

For LVWFTASMEIYGSAVADKLDNSRS, which protein stability index is on record?
Its protein stability index is 1.56.

For LVVFTASMEIYGSAVADKLTNSRS, which protein stability index is on record?
Its protein stability index is 2.02.

Which protein stability index does the source give for LVVFTASMEIYGSAVADKLENSRS here?
The protein stability index was 1.97.

For LVVFTTSMEIYGSAVADKLDNSRS, which protein stability index is on record?
Its protein stability index is 2.8.

With LVVFTRSMEIYGSAVADKLDNSRS as the variant, how does the protein stability index read?
The protein stability index was 2.08.

Which protein stability index does the source give for LVVFTQSMEIYGSAVADKLDNSRS here?
The protein stability index was 2.02.

Which protein stability index does the source give for LVVFTCSMEIYGSAVADKLDNSRS here?
Its protein stability index is 2.65.

With LVVFTGSMEIYGSAVADKLDNSRS as the variant, how does the protein stability index read?
Its protein stability index is 1.57.

For LVVFTNSMEIYGSAVADKLDNSRS, which protein stability index is on record?
The protein stability index was 1.53.

For LVVFTLSMEIYGSAVADKLDNSRS, which protein stability index is on record?
Its protein stability index is 2.11.

For LEVFTASMEIYGSAVADKLDNSRS, which protein stability index is on record?
Its protein stability index is 2.46.

Which protein stability index does the source give for LDVFTASMEIYGSAVADKLDNSRS here?
The protein stability index was 3.02.

For LKVFTASMEIYGSAVADKLDNSRS, which protein stability index is on record?
The protein stability index was 1.78.

For LHVFTASMEIYGSAVADKLDNSRS, which protein stability index is on record?
The protein stability index was 2.16.

Which protein stability index does the source give for LNVFTASMEIYGSAVADKLDNSRS here?
The protein stability index was 2.5.

With LVVFTASMEICGSAVADKLDNSRS as the variant, how does the protein stability index read?
Its protein stability index is 2.48.

Which protein stability index does the source give for LVVFTASMEIDGSAVADKLDNSRS here?
The protein stability index was 1.38.

Which protein stability index does the source give for LVVFTASMEIAGSAVADKLDNSRS here?
Its protein stability index is 3.03.

Which protein stability index does the source give for LVVFTASMEIYGSAVPDKLDNSRS here?
The protein stability index was 3.45.

Which protein stability index does the source give for LVVFTASMEIYGSAVRDKLDNSRS here?
The protein stability index was 3.75.

For LVVFTASMEIYLSAVADKLDNSRS, which protein stability index is on record?
The protein stability index was 2.98.

Which protein stability index does the source give for LVVFTASMEIYTSAVADKLDNSRS here?
The protein stability index was 2.86.

For LVVFTASMEIYGYAVADKLDNSRS, which protein stability index is on record?
The protein stability index was 2.58.

With LVVFTASMEIYGTAVADKLDNSRS as the variant, how does the protein stability index read?
Its protein stability index is 2.42.

Which protein stability index does the source give for LVVFTASMEIYGQAVADKLDNSRS here?
Its protein stability index is 1.29.

Which protein stability index does the source give for LVVFTASMEIYGSAVADKLDNRRS here?
Its protein stability index is 3.98.

For LVVFTASMEIYGSAVADKLDNMRS, which protein stability index is on record?
The protein stability index was 2.31.

For LVVFTASMEIYGSAVADGLDNSRS, which protein stability index is on record?
The protein stability index was 1.99.

Which protein stability index does the source give for LVVSTASMEIYGSAVADKLDNSRS here?
The protein stability index was 2.34.

With LVVITASMEIYGSAVADKLDNSRS as the variant, how does the protein stability index read?
The protein stability index was 3.55.

For LVVTTASMEIYGSAVADKLDNSRS, which protein stability index is on record?
Its protein stability index is 1.56.

With LVVFTASMEIYGSAVAVKLDNSRS as the variant, how does the protein stability index read?
Its protein stability index is 1.97.

Which protein stability index does the source give for LVVFTASMEIYGSAVALKLDNSRS here?
Its protein stability index is 3.58.

With LVVFTASMEIYGSAVAKKLDNSRS as the variant, how does the protein stability index read?
Its protein stability index is 2.26.

With LVVFTASMEIYGSAVAHKLDNSRS as the variant, how does the protein stability index read?
Its protein stability index is 3.

For LVVFTASMEIYGSAVADKLDNSCS, which protein stability index is on record?
The protein stability index was 2.03.

Variants of: B2
Test: as above
Conditions: c terminus: a fixed tail appended

Which protein stability index does the source give for DMVSNIELPTSIHEEVYFEPSSSK here?
The protein stability index was 4.07.

Which protein stability index does the source give for DMVSNIELPTKIHEEVYFEPSSSK here?
The protein stability index was 3.77.

For DMVSNIELPTFIHEEVYFEPSSSK, which protein stability index is on record?
The protein stability index was 3.42.

With DMVSNIELPTVIHEEVYFEPSSSK as the variant, how does the protein stability index read?
The protein stability index was 4.14.

With DMVSNIELPTEIHEEVYFEPSSSK as the variant, how does the protein stability index read?
The protein stability index was 4.5.

For DMVSNIELPTDIHEEVYFEPSSSK, which protein stability index is on record?
The protein stability index was 4.49.

Which protein stability index does the source give for DMVSNIELPTRIHQEVYFEPSSSK here?
Its protein stability index is 3.43.

With DMVSNIELPTRIHKEVYFEPSSSK as the variant, how does the protein stability index read?
Its protein stability index is 3.36.

Reference: the supplement of paper PMC10567573
